The source of these data is the Immune Epitope Database (IEDB).

In one test the target is HLA-A*02:17. The experiment in a line: IEDB peptide-MHC binding, purified MHC/competitive/radioactivity; filed as Kd, often an IC50 or EC50 that approximates it; ≥ and ≤ were set here for values at or beyond the usual limits of such assays.
In test [1] the target is HLA-B*08:01. The description is as above. The settings on record: source organism: Dengue virus 2 Jamaica/1409/1983.
Test [2] deals with HLA-A*02:01. Described as above.
Another test concerns the target HLA-B*15:01. The experiment in a line: IEDB peptide-MHC binding, purified MHC/direct/fluorescence; filed as Kd, often an IC50 or EC50 that approximates it; ≥ and ≤ were set here for values at or beyond the usual limits of such assays.
The next test has as its target HLA-B*07:02. The description is as above.
A further test concerns the target HLA-B*27:05. Described as above. To be noted: source organism: Pseudomonas aeruginosa.
For test [3], the target named is HLA-A*03:01. Described as above.
For the next test, the target named is HLA-B*58:01. The description is as above. The settings on record: source organism: Pseudomonas aeruginosa.
For a further test, the target named is HLA-A*26:01. The description is as above.
Test [4] concerns the target HLA-B*08:01. The test is described as above.
A further test deals with HLA-B*40:01. The description is as above. To be noted: source organism: Pseudomonas aeruginosa.
The next test concerns the target HLA-A*69:01. The test is described as above.
Test [5] concerns the target HLA-A*11:01. The description is as above.
The target in a further test is HLA-A*01:01. The test is described as above.
In the next test the target is HLA-A*31:01. The description is as above.
Another test addresses HLA-B*35:01. Described as above.
The target of a further test is HLA-A*24:03. The description is as above. The settings on record: source organism: Pseudomonas aeruginosa.
The target of test [6] is HLA-A*02:01. The description is as above.
For the next test, the target named is HLA-A*02:03. Briefly: IEDB peptide-MHC binding, purified MHC/competitive/radioactivity; filed as Kd, often an IC50 or EC50 that approximates it; ≥ and ≤ were set here for values at or beyond the usual limits of such assays. The settings on record: source organism: Dengue virus 2 Peru/IQT2913/1996.
The target of a further test is HLA-A*68:02. The test is described as above. The settings on record: source organism: Dengue virus 2 Peru/IQT2913/1996.
The target of the next test is HLA-A*02:06. Described as above. The settings on record: source organism: Dengue virus 2 Peru/IQT2913/1996.
The next test deals with HLA-A*02:12. The experiment in a line: IEDB peptide-MHC binding, purified MHC/competitive/fluorescence; filed as Kd, often an IC50 or EC50 that approximates it; ≥ and ≤ were set here for values at or beyond the usual limits of such assays. The settings on record: source organism: Cowpox virus.
Test [7] deals with HLA-A*02:01. The test is described as above. The settings on record: source organism: Cowpox virus.
Test [8] concerns the target HLA-A*11:01. The experiment in a line: IEDB peptide-MHC binding, purified MHC/competitive/fluorescence; ≥ and ≤ were set here for values at or beyond the usual limits of such assays.
The target in another test is HLA-B*44:02. Briefly: IEDB peptide-MHC binding, purified MHC/direct/fluorescence; filed as Kd, often an IC50 or EC50 that approximates it; ≥ and ≤ were set here for values at or beyond the usual limits of such assays. The settings on record: source organism: Giardia lamblia ATCC 50803.
Test [9] has as its target HLA-A*03:01. Briefly: IEDB peptide-MHC binding, purified MHC/competitive/fluorescence; ≥ and ≤ were set here for values at or beyond the usual limits of such assays. To be noted: source organism: Zaire ebolavirus.
Where [10] appears, read: source organism: Dengue virus 2 Jamaica/1409/1983.
[11] abbreviates: source organism: Pseudomonas aeruginosa.
Setting [12] is: source organism: Dengue virus 2 Thailand/NGS-C/1944.
Where [13] appears, read: source organism: Giardia lamblia ATCC 50803.
The mark [14] stands for this setting: source organism: Dengue virus 1 Singapore/S275/1990.

pIC50, pKd: −log10 of the molar value.

On to LMGLGKGWPL, for which the pKd with HLA-A*02:17 (setting [10]) was 6.04; with HLA-B*08:01 [1], 6.52; in the test with HLA-A*02:01 [2] (setting [10]) it was 6.79.

Consider LPQTRWQAV, for which the pKd in the test with HLA-B*15:01 (setting [11]) is at most 4.70; with HLA-B*07:02 (setting [11]), 7.55; in the test with HLA-B*27:05, at most 4.70; with HLA-A*03:01 [3] (setting [11]) it was at most 4.70; in the test with HLA-B*58:01 it was at most 4.70; with HLA-A*26:01 (setting [11]) it was at most 4.70. Besides, the pKd is 6.72 in the test with HLA-B*08:01 [4] (setting [11]); at most 4.70 with HLA-B*40:01; at most 4.70 with HLA-A*69:01 (setting [11]); at most 4.70 with HLA-A*11:01 [5] (setting [11]); at most 4.70 with HLA-A*01:01 (setting [11]); at most 4.70 with HLA-A*31:01 (setting [11]). Also, the pKd with HLA-B*35:01 (setting [11]) was 7.06; with HLA-A*24:03, at most 4.70; with HLA-A*02:01 [6] (setting [11]), at most 4.70.

With LVISGLFPV, the negative logarithm of the Kd (pKd) in the test with HLA-A*02:17 (setting [12]) is 8.66; with HLA-A*02:03, 8.44; with HLA-A*68:02, 8.91; with HLA-A*02:06 it was 9.44; with HLA-A*02:01 [2] (setting [12]) it was 8.53.

NMNNDSYYF: the pKd with HLA-A*02:12 is 7.12; with HLA-A*02:01 [7] it was 7.95.

The sequence NQVCIDILR had a pIC50 with HLA-A*11:01 [8] (source organism: Vaccinia virus) of at most 3.69.

For the sequence QHTRRVSVL, the pKd in the test with HLA-B*15:01 (setting [13]) is at most 4.70; in the test with HLA-B*07:02 (setting [13]), at most 4.70; in the test with HLA-A*03:01 [3] (setting [13]), at most 4.70; in the test with HLA-A*26:01 (setting [13]), 5.29; with HLA-B*44:02 it was at most 4.70; with HLA-B*08:01 [4] (setting [13]) it was 6.27. For the same sequence, the pKd with HLA-A*69:01 (setting [13]) was at most 4.70; in the test with HLA-A*11:01 [5] (setting [13]) it was at most 4.70; in the test with HLA-A*01:01 (setting [13]) it was at most 4.70; in the test with HLA-A*31:01 (setting [13]), at most 5.00; in the test with HLA-B*35:01 (setting [13]) it was 5.88; with HLA-A*02:01 [6] (setting [13]), 5.00.

Consider VKNEVNSFK, for which the results for the pIC50 with HLA-A*03:01 [9] and in the test with HLA-A*11:01 [8] (source organism: Zaire ebolavirus) were 4.33 and 4.41, respectively.

VLLLTIGLSL: the pKd in the test with HLA-A*02:17 (setting [14]) is 5.41; in the test with HLA-A*02:01 [2] (setting [14]), 8.28.

For the sequence VVAVGGLAI, the pKd was 6.84 with HLA-B*15:01 (setting [11]); 6.60 with HLA-B*07:02 (setting [11]); at most 4.70 in the test with HLA-B*27:05; at most 4.70 with HLA-A*03:01 [3] (setting [11]); at most 4.70 with HLA-B*58:01; at most 4.70 in the test with HLA-A*26:01 (setting [11]). In addition, the pKd with HLA-B*08:01 [4] (setting [11]) was at most 4.70; in the test with HLA-B*40:01, at most 4.70; with HLA-A*11:01 [5] (setting [11]) it was at most 4.70; with HLA-A*01:01 (setting [11]), at most 4.70; in the test with HLA-A*31:01 (setting [11]), at most 4.70; with HLA-B*35:01 (setting [11]) it was 5.21. Further, the pKd with HLA-A*24:03 and in the test with HLA-A*02:01 [6] (setting [11]) was at most 4.70 throughout.

Usually pKd stands for the Kd on a negative log10 scale, so that one unit is a factor of ten. The term pIC50 denotes the IC50 on a negative log10 scale, so that one unit is a factor of ten.
